Assay [1] addresses human Claudin-6 (CLDN6) (human) (UniProt P56747). Put plainly: flow cytometry, UMUC4 cells (positive cell line); 2nd Ab only 1,114.73. (In general: A flow cytometer gives signals particle by particle.)
Assay [2] shares this target. The experiment in a line: KinExA, HEK293T CLDN6-mGFP A11 cells detached by Versene, equilibrium curves 500pM, 10nM; printed 95% CI 3.41nM - 14.99nM. On the technique in general: Kinetic exclusion samples the free partner from a solution-phase mixture.
The target is the same in assay [3]. The experiment in a line: flow cytometry, HEK293T CLDN6-mGFP A11 cells (positive artificial OE cell line); 2nd Ab only 1,242.89.
Assay [4] shares this target. Put plainly: KinExA, HEK293T CLDN6-mGFP A11 cells detached by Versene, equilibrium curves 500pM, 10nM; printed 95% CI 1.46nM - 6.47nM.
Assay [5] has the same target. Put plainly: KinExA, HEK293T CLDN6-mGFP A11 cells detached by Versene, equilibrium curves 500pM, 10nM; printed 95% CI 0.56nM - 1.66nM.
Assay [6] shares this target. Put plainly: KinExA, HEK293T CLDN6-mGFP A11 cells detached by Versene, equilibrium curves 500pM, 10nM; printed 95% CI 1.05nM - 3.38nM.
Assay [7] has the same target. Put plainly: KinExA, HEK293T CLDN6-mGFP A11 cells detached by Versene, equilibrium curves 500pM, 10nM; printed 95% CI 2.10nM - 5.42nM.
The target is the same in assay [8]. Put plainly: KinExA, HEK293T CLDN6-mGFP A11 cells detached by Versene, equilibrium curves 500pM, 10nM; printed 95% CI 1.49nM - 17.05nM.
For assay [9] the target is unchanged. The experiment in a line: KinExA, HEK293T CLDN6-mGFP A11 cells detached by Versene, equilibrium curves 500pM, 10nM; printed 95% CI 1.07nM - 7.74nM.
The target is the same in assay [10]. Put plainly: FACS, limiting dilution, ARK2 cells.
Assay [11] has the same target. The experiment in a line: FACS, limiting dilution, OV90 cells.
For assay [12] the target is unchanged. The experiment in a line: FACS, limiting dilution, UMUC4 cells.
The target is the same in assay [13]. Put plainly: FACS, 0.3 ug Ab, ARK2 cells (2nd Ab only 1351.21).
For assay [14] the target is unchanged. The experiment in a line: FACS, 1.5 ug Ab, ARK2 cells (2nd Ab only 1351.21).
For assay [15] the target is unchanged. Put plainly: FACS, 0.3 ug Ab, 293T clone expressing human CLDN6 (2nd Ab only 768.07).
Assay [16] has the same target. Put plainly: FACS, 1.5 ug Ab, 293T clone expressing human CLDN6 (2nd Ab only 768.07).
The target of assay [17] is T1, mouse Claudin-6 (CLDN6) (mouse, UniProt Q9Z262 1-219).
T1 construct: whole, on cells; GFP fusion on engineered HEK293T cells; also called Mouse CLDN6; murine CLDN6
T1 sequence (looked up): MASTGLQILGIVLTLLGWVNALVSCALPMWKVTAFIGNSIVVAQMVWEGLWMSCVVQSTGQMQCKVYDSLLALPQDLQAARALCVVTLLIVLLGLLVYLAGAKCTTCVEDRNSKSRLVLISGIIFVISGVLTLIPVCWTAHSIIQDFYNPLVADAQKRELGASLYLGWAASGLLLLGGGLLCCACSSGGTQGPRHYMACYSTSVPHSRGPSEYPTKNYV
The experiment in a line: FACS, 293T clone expressing mouse CLDN6, dose not stated (2nd Ab only 1061.72). As to the method:
Two doses (1.5 μg or 0.3 μg) of the humanized antibodies were tested for binding to either human CLDN6 or murine CLDN6 which proteins were expressed by engineered 293T clones.

Assay [18] deals with human Claudin-6 (CLDN6) (human) (UniProt P56747). Put plainly: KinExA, HEK293T CLDN6-mGFP A11 cells detached by Versene, equilibrium curves 500pM, 10nM; printed 95% CI 0.53nM - 2.03nM.

By Kd is commonly meant the concentration at which binding is half-saturated.

B1: CLDN6 ADC: AB3-7 conjugated to MC-VC-PAB-MMAE (conventional) (antibody, V domains shown)
VH: EVQLLESGGGLVQPGGSMRLSCAASGFTFSNYWMNWVRQAPGKGLEWVAQIRLKSDNYATHYADSVKGRFTISRDDSKNTVYLQMNSLRAEDTGVYYCNDGPPSGSWGQGTLLTVSS
VL: DIQMTQSPSSLSASVGDRVTITCRISENIYSYLAWYQQKPGKAPKLLVYNAKILVEGVPSRFSGSGSGTDFTLTISSLQPEDFGTYYCQHHYTVPWTFGQGTKLEIK
modifications: antibody conjugated to MC-VC-PAB-MMAE, heterogeneous drug load; attachment residues not stated
In turn, B1 returned a flow cytometry signal at 1µg Ab/Sample in assay [1] of 28800. For the same molecule, the Kd in [2] was 6.68 nM.

B2: CLDN6 ADC: AB3-7 conjugated to MC-GGFG-DXD (antibody, V domains shown)
VH: EVQLLESGGGLVQPGGSMRLSCAASGFTFSNYWMNWVRQAPGKGLEWVAQIRLKSDNYATHYADSVKGRFTISRDDSKNTVYLQMNSLRAEDTGVYYCNDGPPSGSWGQGTLLTVSS
VL: DIQMTQSPSSLSASVGDRVTITCRISENIYSYLAWYQQKPGKAPKLLVYNAKILVEGVPSRFSGSGSGTDFTLTISSLQPEDFGTYYCQHHYTVPWTFGQGTKLEIK
modifications: antibody conjugated to MC-GGFG-DXD; attachment residues not stated
For the molecule B2, in assay [1], the flow cytometry signal at 0.1µg Ab/Sample stood at 10500 and the flow cytometry signal at 1µg Ab/Sample was 32800. Moreover, the flow cytometry signal at 0.1µg Ab/Sample in assay [3] was determined as 121000. For the same molecule, the Kd in assay [4] came to 3.01 nM.

B3: CLDN6 ADC: AB3-7 conjugated to MC-GGFG-MMAE (D4 technology) (antibody, V domains shown)
VH: EVQLLESGGGLVQPGGSMRLSCAASGFTFSNYWMNWVRQAPGKGLEWVAQIRLKSDNYATHYADSVKGRFTISRDDSKNTVYLQMNSLRAEDTGVYYCNDGPPSGSWGQGTLLTVSS
VL: DIQMTQSPSSLSASVGDRVTITCRISENIYSYLAWYQQKPGKAPKLLVYNAKILVEGVPSRFSGSGSGTDFTLTISSLQPEDFGTYYCQHHYTVPWTFGQGTKLEIK
modifications: antibody conjugated to MC-GGFG-MMAE, mostly 4 drugs per antibody; attachment residues not stated
In assay [1], B3 had a flow cytometry signal at 0.1µg Ab/Sample of 8790 and a flow cytometry signal at 1µg Ab/Sample of 31600. In assay [5], this molecule showed a Kd of 1.01 nM.

B4: CLDN6 ADC: AB3-7 conjugated to CL2A-SN38 (conventional) (antibody, V domains shown)
VH: EVQLLESGGGLVQPGGSMRLSCAASGFTFSNYWMNWVRQAPGKGLEWVAQIRLKSDNYATHYADSVKGRFTISRDDSKNTVYLQMNSLRAEDTGVYYCNDGPPSGSWGQGTLLTVSS
VL: DIQMTQSPSSLSASVGDRVTITCRISENIYSYLAWYQQKPGKAPKLLVYNAKILVEGVPSRFSGSGSGTDFTLTISSLQPEDFGTYYCQHHYTVPWTFGQGTKLEIK
modifications: antibody conjugated to CL2A-SN38, heterogeneous drug load; attachment residues not stated
Take B4: in [1], the flow cytometry signal at 0.1µg Ab/Sample came to 9990 and the flow cytometry signal at 1µg Ab/Sample amounted to 33800. Besides, the Kd in assay [6] worked out at 1.91 nM.

B5: CLDN6 ADC: AB3-7 conjugated to MC-VC-PAB-DXD (antibody, V domains shown)
VH: EVQLLESGGGLVQPGGSMRLSCAASGFTFSNYWMNWVRQAPGKGLEWVAQIRLKSDNYATHYADSVKGRFTISRDDSKNTVYLQMNSLRAEDTGVYYCNDGPPSGSWGQGTLLTVSS
VL: DIQMTQSPSSLSASVGDRVTITCRISENIYSYLAWYQQKPGKAPKLLVYNAKILVEGVPSRFSGSGSGTDFTLTISSLQPEDFGTYYCQHHYTVPWTFGQGTKLEIK
modifications: antibody conjugated to MC-VC-PAB-DXD; attachment residues not stated
In [1], B5 showed a flow cytometry signal at 0.1µg Ab/Sample of 10800 and a flow cytometry signal at 1µg Ab/Sample of 32600. The flow cytometry signal at 0.1µg Ab/Sample in [3] is 110000. The same molecule yielded a Kd in assay [7] of 3.42 nM.

B6: CLDN6 ADC: AB3-7 conjugated to MC-VC-PAB-MMAE (D4 technology) (antibody, V domains shown)
VH: EVQLLESGGGLVQPGGSMRLSCAASGFTFSNYWMNWVRQAPGKGLEWVAQIRLKSDNYATHYADSVKGRFTISRDDSKNTVYLQMNSLRAEDTGVYYCNDGPPSGSWGQGTLLTVSS
VL: DIQMTQSPSSLSASVGDRVTITCRISENIYSYLAWYQQKPGKAPKLLVYNAKILVEGVPSRFSGSGSGTDFTLTISSLQPEDFGTYYCQHHYTVPWTFGQGTKLEIK
modifications: antibody conjugated to MC-VC-PAB-MMAE, mostly 4 drugs per antibody; attachment residues not stated
With B6, in assay [1], the flow cytometry signal at 0.1µg Ab/Sample turned out to be 9450 and the flow cytometry signal at 1µg Ab/Sample amounted to 26900. In assay [8], the Kd is 5.34 nM.

B7: CLDN6 ADC: AB3-7 conjugated to CL2A-SN38 (D4 technology) (antibody, V domains shown)
VH: EVQLLESGGGLVQPGGSMRLSCAASGFTFSNYWMNWVRQAPGKGLEWVAQIRLKSDNYATHYADSVKGRFTISRDDSKNTVYLQMNSLRAEDTGVYYCNDGPPSGSWGQGTLLTVSS
VL: DIQMTQSPSSLSASVGDRVTITCRISENIYSYLAWYQQKPGKAPKLLVYNAKILVEGVPSRFSGSGSGTDFTLTISSLQPEDFGTYYCQHHYTVPWTFGQGTKLEIK
modifications: antibody conjugated to CL2A-SN38, mostly 4 drugs per antibody; attachment residues not stated
As to B7, in assay [1], the flow cytometry signal at 0.1µg Ab/Sample was determined as 9140 and the flow cytometry signal at 1µg Ab/Sample came out at 34600. Besides, in [9], the Kd stood at 2.87 nM.

B8: AB3-7 (antibody, V domains shown)
VH: EVQLLESGGGLVQPGGSMRLSCAASGFTFSNYWMNWVRQAPGKGLEWVAQIRLKSDNYATHYADSVKGRFTISRDDSKNTVYLQMNSLRAEDTGVYYCNDGPPSGSWGQGTLLTVSS
VL: DIQMTQSPSSLSASVGDRVTITCRISENIYSYLAWYQQKPGKAPKLLVYNAKILVEGVPSRFSGSGSGTDFTLTISSLQPEDFGTYYCQHHYTVPWTFGQGTKLEIK
notes: humanized; also called AB23; humanized AB3-7
B8: the FACS signal at 0.32 nM in [10] worked out at 402; in assay [11] it was 393; in assay [12] it was 604. Besides, the FACS signal at 1.6 nM in [10] came out at 537; in [11], 567; in [12], 570. For the same molecule, the FACS signal at 8 nM in assay [10] is 991; in [11] it was 565; in assay [12], 724. The FACS signal at 40 nM in assay [10] is 1640; in assay [11], 1140; in [12] it was 1120. Further, the FACS signal at 200 nM in [10] amounted to 3060; in assay [11], 2330; in assay [12], 2110. For the same molecule, the FACS signal at 1000 nM in [10] stood at 11400; in [11], 9390; in assay [12] it was 9840. Also, the FACS fluorescence in assay [13] came out at 36000; in assay [14], 90400; in [15] it was 106000; in assay [16], 169000; in assay [17] it was 56100. Moreover, the figures for the flow cytometry signal at 0.1µg Ab/Sample in assay [1] and in [3] were 8820 and 107000, respectively. The same molecule came in with a flow cytometry signal at 1µg Ab/Sample in assay [1] of 27300. The molecule further returned a Kd in assay [18] of 1.13 nM.

The record behind these values is patent US20230049752A1 (University of California, published 2023).
